From article PMC2965261 (Nucleic Acids Research, 2010)

Molecular target: T1, Candida albicans Ino4 (C. albicans, UniProt A0A1D8PH18 1-130)
T1 sequence: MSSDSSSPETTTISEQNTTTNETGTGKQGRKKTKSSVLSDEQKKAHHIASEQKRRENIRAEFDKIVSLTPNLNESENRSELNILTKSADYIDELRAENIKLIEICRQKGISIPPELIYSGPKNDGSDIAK
Test: two-hybrid

B1: Candida albicans Ino2 (natural protein)
chain: MSSTVTQTMNNNPTEKVTFTASNSQADFDLLDIFSNDMDFEQAYDMYNNLQEKNAMGSFEQLQKVQALNQQYVSNLQPPSSAQFPDQFAYERAQILNGEYNKQSGLMNDATNKNYSFNDDTFDQFFTNTESNALEKFLDNLANPVASVNPLQFYNNTRTSVPDEDVDLSFELHTMKVPQQFKPRSQSLEHNPPLQQKVRFTEEEHAALKQELTEAFAHPCTQLPSPSTTEYKPKPTTPKVVKQFVTPPNSGDESRKRNSDIESDESEEETTPTTKKRKRTSSKPLLSVEQKRLNHSHSEQKRRQLCKFAYQRCLELIIDLDAFNKLPELNESERKSKRARVNKDGLPNLSKHNALIRISNEMILIKSMNDSLKKLIENR
galactosidase activity, fold of the background activity: 2.5 fold
